The values that follow come from article PMC11931385, “Structural and functional analysis of cancer-associated missense variants in the retinoblastoma protein pocket domain” (The Journal of Biological Chemistry, 2025).

Holding throughout (assay): fluorescence polarisation; 25 °C; unlabeled Rb^P titrated against 1.5 nM TMR-E2F1^TD or 7.5 nM TMR-E7^LxCxE; 25 mM Tris pH 8.0, 200 mM NaCl, 1 mM DTT, 0.1% Tween-20; 2 min incubation; quadratic fit; apparent Kd for the variants, Kd for WT
Common to all, as to details: both partners purified

Experiment [1] concerns the target T1, Rb^P R656W (human, UniProt P06400 380-788, R656W).
T1 construct: also called variant 49
T1 sequence (looked up): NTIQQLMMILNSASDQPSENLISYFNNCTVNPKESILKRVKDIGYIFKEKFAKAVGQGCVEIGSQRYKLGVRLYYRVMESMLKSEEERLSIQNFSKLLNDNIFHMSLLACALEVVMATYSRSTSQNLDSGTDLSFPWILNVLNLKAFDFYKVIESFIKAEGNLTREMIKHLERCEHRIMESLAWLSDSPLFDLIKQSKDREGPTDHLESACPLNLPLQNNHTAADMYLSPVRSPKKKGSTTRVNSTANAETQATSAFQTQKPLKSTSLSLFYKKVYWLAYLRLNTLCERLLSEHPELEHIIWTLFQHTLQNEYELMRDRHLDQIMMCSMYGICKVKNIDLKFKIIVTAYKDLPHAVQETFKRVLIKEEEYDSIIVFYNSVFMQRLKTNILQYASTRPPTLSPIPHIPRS

Experiment [2] addresses T2, Rb^P E554K (human, UniProt P06400 380-788, E554K).
T2 construct: also called variant 28
T2 sequence (looked up): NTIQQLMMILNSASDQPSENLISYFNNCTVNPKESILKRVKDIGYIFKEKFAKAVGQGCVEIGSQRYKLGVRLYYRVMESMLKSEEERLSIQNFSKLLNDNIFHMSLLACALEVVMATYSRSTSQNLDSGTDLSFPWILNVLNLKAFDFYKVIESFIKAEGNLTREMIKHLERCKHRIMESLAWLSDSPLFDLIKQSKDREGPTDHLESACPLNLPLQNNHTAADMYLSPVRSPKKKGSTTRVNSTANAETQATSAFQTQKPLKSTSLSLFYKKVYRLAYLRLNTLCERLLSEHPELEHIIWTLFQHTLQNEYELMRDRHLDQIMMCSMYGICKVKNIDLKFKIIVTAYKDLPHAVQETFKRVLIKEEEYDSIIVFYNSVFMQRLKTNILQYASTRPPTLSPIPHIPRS

Experiment [3] has as its target T3, Rb^P A490S (human, UniProt P06400 380-788, A490S).
T3 construct: also called variant 15
T3 sequence (looked up): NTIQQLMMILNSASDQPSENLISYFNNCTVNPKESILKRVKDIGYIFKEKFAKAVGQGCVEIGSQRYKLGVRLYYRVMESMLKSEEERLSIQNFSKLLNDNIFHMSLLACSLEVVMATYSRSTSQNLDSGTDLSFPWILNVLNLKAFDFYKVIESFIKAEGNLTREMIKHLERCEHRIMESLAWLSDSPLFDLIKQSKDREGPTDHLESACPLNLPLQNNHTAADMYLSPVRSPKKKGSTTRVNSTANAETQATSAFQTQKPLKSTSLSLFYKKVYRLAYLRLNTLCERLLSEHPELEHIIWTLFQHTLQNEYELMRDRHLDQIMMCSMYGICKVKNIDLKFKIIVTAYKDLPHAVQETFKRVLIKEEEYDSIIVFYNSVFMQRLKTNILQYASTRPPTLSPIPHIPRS

Experiment [4] addresses T4, Rb^P S751Y (human, UniProt P06400 380-788, S751Y).
T4 construct: also called variant 72
T4 sequence (looked up): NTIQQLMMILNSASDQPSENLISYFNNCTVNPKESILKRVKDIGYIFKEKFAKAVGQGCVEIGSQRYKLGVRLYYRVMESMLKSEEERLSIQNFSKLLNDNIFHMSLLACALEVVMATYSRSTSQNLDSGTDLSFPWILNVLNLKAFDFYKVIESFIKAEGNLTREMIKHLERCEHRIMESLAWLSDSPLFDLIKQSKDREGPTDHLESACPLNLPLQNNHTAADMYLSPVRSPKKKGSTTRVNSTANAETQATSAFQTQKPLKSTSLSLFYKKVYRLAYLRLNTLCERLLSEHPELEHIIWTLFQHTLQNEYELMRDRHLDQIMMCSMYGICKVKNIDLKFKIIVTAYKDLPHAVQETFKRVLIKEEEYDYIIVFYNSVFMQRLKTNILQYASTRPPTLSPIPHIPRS

Experiment [5] deals with T5, Rb^P S443L (human, UniProt P06400 380-788, S443L).
T5 construct: also called variant 2
T5 sequence (looked up): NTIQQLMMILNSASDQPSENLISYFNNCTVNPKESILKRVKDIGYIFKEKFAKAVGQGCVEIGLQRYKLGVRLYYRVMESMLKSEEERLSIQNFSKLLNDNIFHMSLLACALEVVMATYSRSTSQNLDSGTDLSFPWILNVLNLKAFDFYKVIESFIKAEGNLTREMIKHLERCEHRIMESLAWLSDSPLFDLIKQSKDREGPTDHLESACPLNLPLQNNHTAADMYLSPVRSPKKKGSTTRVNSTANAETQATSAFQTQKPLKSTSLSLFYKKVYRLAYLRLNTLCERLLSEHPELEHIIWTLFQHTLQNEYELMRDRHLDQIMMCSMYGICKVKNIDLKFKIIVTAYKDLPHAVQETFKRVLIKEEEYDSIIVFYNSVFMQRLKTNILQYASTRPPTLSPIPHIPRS

No end group written: not given here. TMR = tetramethyl rhodamine dye

B1: TMR-E2F1^TD, peptide of the E2F1 transactivation domain (peptide)
peptide: {TMR}-GEGIRDLFDCDFGDLTPLD
notes: also called E2F^TD; source: synthetic peptide, bought: GenScript
For B1, the Kd was determined as 39 nM in experiment [1]; 1170 nM in experiment [2]; 17 nM in experiment [3]; 33 nM in experiment [4]; 31 nM in experiment [5].

B2: TMR-E7^LxCxE, LxCxE peptide of the E7 oncoprotein from HPV (peptide)
peptide: DLYCYEQLN
modifications: also: TMR label, position not given here
notes: source: synthetic peptide, bought: GenScript
Take B2: the Kd in experiment [1] amounted to 8 nM; in experiment [2], 12 nM; in experiment [3], 7 nM; in experiment [4] it was 127 nM; in experiment [5] it was 9 nM.
